From publication doi:10.1101/2024.07.10.602939 (bioRxiv, 2024)

Biological target: the molecule itself
Assay: SEC

Protein	binding result	stoichiometry N
oxidized Get3 from Saccharomyces cerevisiae (natural protein, UniProt Q12154 1-354, looked up, oxidized cysteines (positions not given)) MDLTVEPNLHSLITSTTHKWIFVGGKGGVGKTTSSCSIAIQMALSQPNKQFLLISTDPAHNLSDAFGEKFGKDARKVTGMNNLSCMEIDPSAALKDMNDMAVSRANNNGSDGQGDDLGSLLQGGALADLTGSIPGIDEALSFMEVMKHIKRQEQGEGETFDTVIFDTAPTGHTLRFLQLPNTLSKLLEKFGEITNKLGPMLNSFMGAGNVDISGKLNELKANVETIRQQFTDPDLTTFVCVCISEFLSLYETERLIQELISYDMDVNSIIVNQLLFAENDQEHNCKRCQARWKMQKKYLDQIDELYEDFHVVKMPLCAGEIRGLNNLTKFSQFLNKEYNPITDGKVIYELEDKE	binds	
reduced Get3 from Saccharomyces cerevisiae (natural protein, UniProt Q12154 1-354, looked up) MDLTVEPNLHSLITSTTHKWIFVGGKGGVGKTTSSCSIAIQMALSQPNKQFLLISTDPAHNLSDAFGEKFGKDARKVTGMNNLSCMEIDPSAALKDMNDMAVSRANNNGSDGQGDDLGSLLQGGALADLTGSIPGIDEALSFMEVMKHIKRQEQGEGETFDTVIFDTAPTGHTLRFLQLPNTLSKLLEKFGEITNKLGPMLNSFMGAGNVDISGKLNELKANVETIRQQFTDPDLTTFVCVCISEFLSLYETERLIQELISYDMDVNSIIVNQLLFAENDQEHNCKRCQARWKMQKKYLDQIDELYEDFHVVKMPLCAGEIRGLNNLTKFSQFLNKEYNPITDGKVIYELEDKE	binds	
oxidized TRC40 from Danio rerio (natural protein, oxidized cysteines: intra- and intermolecular disulfide bonds (positions not given)) not shown		≥ 4
reduced TRC40 from Danio rerio (natural protein) not shown		2
